Residue numbers refer to the chain shown, from its start.

The target in assay [1] is T1, full-length human Nav1.7 fused at its N-terminus to GFP, expressed in HEK293 cells (human, UniProt Q15858 1-1988). In words: cell-based or functional assay.
In assay [2] the target is T2, Native Nav1.7 (3-1) peptide, human (human).
T2 construct: Synthetic peptide (Celtek), unbiotinylated; also called Human Nav1.7 3-1 native; Nav1.7 3-1 native peptide
T2 peptide: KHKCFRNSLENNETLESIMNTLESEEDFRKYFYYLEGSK
The assay can be described thus: SPR, captured antibody, peptide analyte. The procedure:
(§1) The binding affinities of anti-Naᵥ 1.7 antibodies to Naᵥ 1.7 loop peptides were determined by Biacore. For monovalent kinetic experiments, antibodies were captured through the Fc region via a goat anti-Fc-coupled biosensor surface, and the peptides (as analyte) were injected over this captured antibody surface. For bivalent (avidity-driven) kinetic experiments, biotinylated peptides corresponding to the Naᵥ 1.7 3-1, 3-3, or paddle loop sequences were captured on a NeutrAvidin sensor surface, and anti-Naᵥ 1.7 antibodies (as analyte) were injected over this surface. Following the capture step, each analyte was individually injected at several concentrations over its respective capture surface, and changes in bound surface units (RU) were monitored. The dissociation rate is independent of the concentration of analyte used in the experiment, and the dissociation rate constant (kd) was determined from the change in antibody-bound analyte RU over time. The Biacore kinetic data were obtained using a double referencing procedure. The double referencing was conducted by first subtracting any interaction of the analyte over the reference surface (i.e., the anti-Fc coupled surface alone or the NeutrAvidin surface alone), thereby correcting for nonspecific binding to capture surface and for refractive index changes. Control buffer injections (no analyte) over the antibody- or peptide-captured surfaces were also performed to allow subtraction of RU signal changes resulting from the natural dissociation of captured binding partner from the sensor surface. The kinetic parameters were obtained by globally fitting the data for all concentrations tested for a given peptide or antibody to a 1:1 binding model using Biacore T100 Evaluation Software version 2.0.2. The KD was calculated as the dissociation rate constant divided by the association rate constant (KD=kd/kₐ). The dissociative half-life (t_{1/2}) was calculated from the dissociation rate constant (t_{1/2}=In2/kd).
In general terms: SPR reads the build-up and loss of mass on a sensor chip optically.

Assay [3] addresses T3, N-Term Biotin Nav1.7 (3-1) peptide, mulatta (mulatta (monkey), not fully specified; N-terminal biotin attached via a G4S linker).
T3 construct: Synthetic peptide; also called Mulatta Nav1.7 3-1 N-term biotin; monkey
T3 peptide: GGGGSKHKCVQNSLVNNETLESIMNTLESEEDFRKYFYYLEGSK
In words: SPR, captured antibody, peptide analyte. The procedure:
as §1

Assay [4] has as its target T4, N-Term Biotin Nav1.7 (3-1) peptide, mouse (mouse, not fully specified; N-terminal biotin attached via a G4S linker).
T4 construct: Synthetic peptide; also called Mouse Nav1.7 3-1 N-term biotin
T4 peptide: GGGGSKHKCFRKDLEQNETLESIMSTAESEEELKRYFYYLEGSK
In words: SPR, captured antibody, peptide analyte. The procedure: as §1

The target of assay [5] is T5, Native Nav1.7 (3-1) peptide, rat (rat).
T5 construct: Synthetic peptide; also called Rat Nav1.7 3-1 native
T5 peptide: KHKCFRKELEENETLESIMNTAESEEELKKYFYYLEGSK
The assay can be described thus: SPR, captured antibody, peptide analyte. The procedure: as §1

Assay [6] has as its target T6, C-term Biotin Nav1.7 (3-1) peptide, human (human, not fully specified; C-terminal biotin attached via a G4S linker).
T6 construct: Synthetic peptide; also called Human Nav1.7 3-1 C-term biotin
T6 peptide: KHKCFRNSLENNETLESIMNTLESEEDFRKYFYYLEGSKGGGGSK
In words: SPR, captured biotin-peptide, antibody analyte. The method, then: as §1

The target of assay [7] is T3, N-Term Biotin Nav1.7 (3-1) peptide, …. The assay can be described thus: ELISA on coated peptide, antibody 1 ug/ml, OD450 grade. The procedure:
(§2) Anti-Naᵥ 1.7 antibodies were tested for their ability to bind to the Naᵥ 1.7 peptides. The various peptides were coated overnight onto 96-well Nunc Immunosorp plates at a concentration of 4 μg/mL in PBS, followed by blocking for 1 hour in a suitable blocking agent. For biotinylated peptides, avidin was first coated on Nunc Immunosorp plates at 2 μg/mL in PBS overnight, followed by blocking as described, and the plate was then coated with biotinylated peptides at a concentration of 0.4 μg/mL and incubated for 1 hour at room temperature. Purified anti-Naᵥ 1.7 antibodies were diluted to a final concentration of 0.1 μg/mL and 1.0 μg/mL and added to the wells of the coated microtiter plates followed by incubation for 1 hour at room temperature. Bound antibodies were detected with horseradish peroxidase (HRP) conjugated anti-mouse or anti-human IgG (Jackson Immuno Research Lab, West Grove, Pa.) depending on the antibody species and developed by colorimetric response using tetramethylbenzidine (TMB) substrate (BD Biosciences). Absorbance was read at OD₄₅₀ on a plate reader for 0.1 second.
(§3) Values in Table 11 represent absolute binding ranges (at OD450) to plate-coated peptides for antibodies added at 1 μg/ml as follows: OD450<0.2: −; 0.2<OD450<1: +; 1<OD450<2: ++; 2<OD450<4: +++; NT: Not Tested.
In general terms: In an ELISA, binding on a coated surface is turned into a signal by an enzyme label.

The target in assay [8] is T4, N-Term Biotin Nav1.7 (3-1) peptide, …. The description is as above. The method, then: as §2, §3
Assay [9] concerns the target T5, Native Nav1.7 (3-1) peptide, rat. Described as above. The procedure:
as §2, §3

Assay [10] concerns the target T7, N-Term Biotin-Nav1.7 (3-1) peptide, human (human, not fully specified; N-terminal biotin attached via a G4S linker).
T7 construct: ELISA peptide
T7 peptide: T3 peptide with V10F, Q11R, V15E
The description is as above. The method, then: as §2, §3

In assay [11] the target is T1, full-length human Nav1.7 fused at its …. In words: flow cytometry; % stained hNav1.7-GFP-HEK293 minus parental HEK293. The procedure: The binding of anti-Naᵥ 1.7 human antibodies to full-length Naᵥ 1.7 expressed in HEK293 cells was determined by flow cytometry (FACS). HEK293 cells were stably-transfected with full-length human Nav1.7 fused at its N-terminus to the green fluorescent protein (GFP) to generate cell line hNaᵥ 1.7-GFP-HEK293. Antibody binding to the transfected cells overexpressing Naᵥ 1.7 was compared to binding to the parental HEK293 cell line. To perform the binding experiments, adherent cells were collected using 1 mM EDTA in PBS, washed and re-suspended in cold PBS containing 5% FBS. For each binding experiment, the anti-Naᵥ 1.7 antibody (at concentrations ranging from 1 nM to 13 nM), was added to 250,000 cells in 500 μL of PBS with 5% FBS. After incubation for 20 minutes on ice, the secondary antibody, recognizing either human-Fc and conjugated to cyanine 5 (Cy5) or recognizing mouse-Fc and conjugated to allophyocyanin (APC), was then added to the cell mixture at a final secondary antibody concentration of 1.7 nM. After incubating for 20 minutes on ice, the cells were resuspended in PBS+5% FBS and then sorted and analyzed on a flow cytometer to determine relative binding by the candidate antibodies. For FACS analysis, gating was applied to examine only healthy live cells in the antibody binding experiments, and percentage stained was recorded. Staining of secondary antibodies alone to Naᵥ 1.7-GFP-HEK293 cells gave low background signals (1-2%). Specific binding was measured as the percent binding to Naᵥ 1.7-GFP-HEK293 cells minus percent binding to parental HEK293 cells.

B1: H1M834N (antibody, V domains shown)
VH: QVQLVESGGGVVQPGRSQRLSCAASGFTFSHYGMHWVRQAPGKGLEWVAVISYDGNNKHYADSVKGRFTTSRDNSKNTLFLQMNSLRAEDTAVYYCARGYSGYVLDYWGQGTLVTVSS
VL: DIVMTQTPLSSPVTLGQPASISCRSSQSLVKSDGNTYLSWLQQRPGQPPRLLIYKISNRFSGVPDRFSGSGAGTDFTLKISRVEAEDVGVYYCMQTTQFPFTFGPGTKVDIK
For B1, in assay [1], the “Current blocking (Average % inhibition), IonWorks Quattro, 223 nM antibody” value (shortened to “Current blocking (Average % inhibition)”) is -14%. Besides, the dissociation constant (Kd) was determined as 5.53 nM in assay [2]; 2.39 nM in assay [3]; 19.2 nM in [4]; 10.2 nM in assay [5]; 0.751 nM in assay [6]. For the same molecule, the t1/2 in [2] came out at 12 min; in assay [3] it was 20.3 min; in assay [4], 2.8 min; in assay [5] it was 2.3 min; in [6], 82.5 min. Besides, the OD450 is 2 to 4 od in assay [7], 1 to 2 od in [8], 2 to 4 od in assay [9] and 2 to 4 od in assay [10]. Also, the “% Binding Nav1.7” value in assay [11] was 4.8%.

B2: H1M875N (antibody, V domains shown)
VH: B1 VH
VL: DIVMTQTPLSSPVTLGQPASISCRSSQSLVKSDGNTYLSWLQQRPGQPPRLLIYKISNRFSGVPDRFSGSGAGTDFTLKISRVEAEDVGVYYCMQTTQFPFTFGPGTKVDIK
notes: also called H1H875N
As for B2, the “Current blocking (Average % inhibition)” value in assay [1] came out at 25%. Besides, the Kd in [2] is 5.85 nM; in assay [3] it was 1.89 nM; in assay [4] it was 12 nM; in assay [5] it was 6.7 nM; in [6], 0.78 nM. Further, the t1/2 turned out to be 12.5 min in assay [2]; 26.5 min in assay [3]; 3.2 min in [4]; 3 min in [5]; 87.2 min in [6]. The OD450 in [7], in assay [8], in assay [9] and in [10] was 2 to 4 od each time. In addition, in assay [11], the “% Binding Nav1.7” value stood at 5.9%.

B3: H1M839N (antibody, V domains shown)
VH: QVQLVESGGGVVQPGRSLRLSCAASGFTFSNYGMHWVRQAPGKGLEWVAVTSYDGSNKHYADSVKGRFSTSRDNPKNTLYLQMDSLRGEDTAVYYCARGYSGFVLDNWGQGTLVTVSS
VL: DIVMTQTPLSSPVTLGQPASISCRSSQSLVKSDGNTYLSWLQQRPGQPPRLLIYKISNRFSGVPDRFSGSGAGTDFTLKISRVEAEDVGIYYCMQTTQFPFTFGPGTKVDIK
Take B3: the “Current blocking (Average % inhibition)” value in assay [1] is 13%. Moreover, the dissociation constant Kd is 3.32 nM in assay [2]; 1.47 nM in assay [3]; 15.1 nM in assay [4]; 7.11 nM in [5]; 0.692 nM in assay [6]. Besides, the t1/2 in [2] worked out at 18.2 min; in [3], 28.7 min; in [4], 3.1 min; in assay [5], 3.2 min; in assay [6] it was 137 min. For the same molecule, the OD450 in assay [7], in assay [8], in [9] and in [10] was 2 to 4 od in each case. Also, in assay [11], the “% Binding Nav1.7” value is 5.1%.

B4: H4H368B (antibody, V domains shown)
VH: EVQLVQSGGGVVQPGRSLRLSCAASGFTFSSYGMHWVRQAPGKGLEWVAVISYQESNKHYVDSVKGRFTISRDNSKNTLYLQMNSLRAEDTAVYYCAKSRGYSYGLGYWGQGTLVTVSS
VL: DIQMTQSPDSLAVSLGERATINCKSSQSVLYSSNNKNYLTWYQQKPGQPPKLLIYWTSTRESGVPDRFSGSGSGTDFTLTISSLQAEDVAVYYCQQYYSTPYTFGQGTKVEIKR
In assay [4], B4 displayed an equilibrium dissociation constant (Kd) of 12 nM and a t1/2 of 964 min. Also, in assay [5], the equilibrium dissociation constant (Kd) was 127 nM and the t1/2 amounted to 0.32 min. The same molecule had an OD450 in assay [9] of 2 to 4 od.

B5: H4H397B (antibody, V domains shown)
VH: B4 VH with E1Q, V50L, Q54A, E55G, S56I, K58E, H59Y, V61A, N74D, A88V
VL: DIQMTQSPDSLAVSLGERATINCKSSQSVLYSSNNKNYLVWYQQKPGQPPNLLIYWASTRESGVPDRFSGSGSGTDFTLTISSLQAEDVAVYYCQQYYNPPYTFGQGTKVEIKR
For the molecule B5, the “Current blocking (Average % inhibition)” value in [1] was -50%. In addition, the dissociation constant Kd in [2] came to 2.37 nM; in assay [3], 0.097 nM; in assay [4], 43.5 nM; in assay [5], 14.2 nM; in assay [6], 0.299 nM. Also, the t1/2 in assay [2] came to 34 min; in assay [3], 289 min; in assay [4], 3.92 min; in assay [5] it was 3.3 min; in [6] it was 206 min. For the same molecule, the OD450 in assay [7], in assay [8], in [9] and in assay [10] was 2 to 4 od in each case.

For orientation: Kd means the free concentration of one partner at which half of the binding sites on the other are occupied at equilibrium, for simple one-to-one binding. A higher Kd goes with a looser complex.

The values above are taken from patent US20160024208A1 (Regeneron, published 2016).
